The results in this text go back to CN118184778A.

The target in the assay is 重组AD7c-NTP蛋白 (human). The experiment in a line: indirect ELISA; plate coated with 1 μg/mL recombinant AD7c-NTP, antibody serially diluted, HRP goat anti-mouse IgG, OD450. (In general: An ELISA detects its analyte on a solid surface through an enzyme-linked reagent.)
Chain of 重组AD7c-NTP蛋白 (human) (chain, as listed by the source): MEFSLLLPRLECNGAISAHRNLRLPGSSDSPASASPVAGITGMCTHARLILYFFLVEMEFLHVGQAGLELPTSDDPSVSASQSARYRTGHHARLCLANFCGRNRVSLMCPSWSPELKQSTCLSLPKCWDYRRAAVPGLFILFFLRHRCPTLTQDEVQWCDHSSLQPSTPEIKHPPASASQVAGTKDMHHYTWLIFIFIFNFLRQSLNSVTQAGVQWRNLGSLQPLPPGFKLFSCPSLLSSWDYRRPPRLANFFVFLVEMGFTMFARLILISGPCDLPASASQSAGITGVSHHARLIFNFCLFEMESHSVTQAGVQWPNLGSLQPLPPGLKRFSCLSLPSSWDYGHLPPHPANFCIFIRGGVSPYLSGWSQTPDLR

B1: 单克隆抗体1D9 (AD7c-NTP单克隆抗体A1) (antibody, V domains shown)
VH: DVQLQESGPGLVKPSQSLSLTCTVTDYSITSDYAWNWIRQFPGNKLEWMGYISYSGSTNYNPSLKSRFSITRDTSKNQFFLQLNSVTTEDTATYYCAGSELYYGYHYVMDYWGQGTSVTVSS
VL: ENVLTQSPAIMSASLGQKVTMTCSASSSVSSSYLHWYQQRSGASPKPLIHRTSNLASGVPARFSGSGSGTSYSLTISSVEAEDDATYYCQQWSGYPLTFGAGTKLELK
For B1, the 最小反应极限 amounted to 9.77 ng/mL.
